Laboratory results: patent publication US20110207628A1 (UNIVERSITY OF MIAMI, published 2011)

What was measured:
[1] = target: T1, tubby-N (N-terminus of mouse tubby, 1M-242P), GST-free (mouse, UniProt P50586 1-242); assay: clonal phage on immobilized tubby-N, plaque assay
T1 construct: range 1-242; Expressed as GST-tubby-N in E. coli BL21(DE3), GST removed by 3C protease cleavage; also called GST-free tubby-N
T1 sequence (looked up): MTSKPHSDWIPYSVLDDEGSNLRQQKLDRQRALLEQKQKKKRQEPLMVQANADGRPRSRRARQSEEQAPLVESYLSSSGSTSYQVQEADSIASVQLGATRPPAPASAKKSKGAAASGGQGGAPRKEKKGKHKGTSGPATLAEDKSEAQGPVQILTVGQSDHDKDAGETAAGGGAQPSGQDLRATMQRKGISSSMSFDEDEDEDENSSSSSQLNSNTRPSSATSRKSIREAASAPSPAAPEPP

[2] = target: T2, FLAG-tubby-F (full-length mouse tubby with N-terminal FLAG tag) (mouse, UniProt P50586 1-505); assay: clonal phage on immobilized FLAG-tubby-F, plaque assay
T2 construct: mature; also called FLAG-tagged tubby; tubby-vesicles
T2 sequence: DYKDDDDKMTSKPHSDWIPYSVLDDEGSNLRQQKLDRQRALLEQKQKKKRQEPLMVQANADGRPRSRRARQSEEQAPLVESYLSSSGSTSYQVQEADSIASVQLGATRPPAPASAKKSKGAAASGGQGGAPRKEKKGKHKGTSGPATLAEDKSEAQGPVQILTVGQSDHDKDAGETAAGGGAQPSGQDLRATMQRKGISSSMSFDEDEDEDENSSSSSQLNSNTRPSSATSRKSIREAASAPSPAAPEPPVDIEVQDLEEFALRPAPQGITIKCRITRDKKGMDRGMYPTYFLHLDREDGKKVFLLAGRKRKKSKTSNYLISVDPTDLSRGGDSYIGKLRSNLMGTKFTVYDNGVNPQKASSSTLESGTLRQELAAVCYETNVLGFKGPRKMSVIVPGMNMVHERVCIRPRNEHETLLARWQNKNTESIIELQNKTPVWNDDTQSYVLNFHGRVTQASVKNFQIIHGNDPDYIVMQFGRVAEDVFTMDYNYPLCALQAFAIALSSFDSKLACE

[3] = target: T3, Axl-Fc (Axl extracellular domain fused to human IgG1 Fc fragment) (human); assay: clonal phage on immobilized Axl-Fc, plaque assay
T3 construct: extracellular domain; Bought (R&D Systems)
T3 sequence (P30530 whole entry, the tested form may be a part): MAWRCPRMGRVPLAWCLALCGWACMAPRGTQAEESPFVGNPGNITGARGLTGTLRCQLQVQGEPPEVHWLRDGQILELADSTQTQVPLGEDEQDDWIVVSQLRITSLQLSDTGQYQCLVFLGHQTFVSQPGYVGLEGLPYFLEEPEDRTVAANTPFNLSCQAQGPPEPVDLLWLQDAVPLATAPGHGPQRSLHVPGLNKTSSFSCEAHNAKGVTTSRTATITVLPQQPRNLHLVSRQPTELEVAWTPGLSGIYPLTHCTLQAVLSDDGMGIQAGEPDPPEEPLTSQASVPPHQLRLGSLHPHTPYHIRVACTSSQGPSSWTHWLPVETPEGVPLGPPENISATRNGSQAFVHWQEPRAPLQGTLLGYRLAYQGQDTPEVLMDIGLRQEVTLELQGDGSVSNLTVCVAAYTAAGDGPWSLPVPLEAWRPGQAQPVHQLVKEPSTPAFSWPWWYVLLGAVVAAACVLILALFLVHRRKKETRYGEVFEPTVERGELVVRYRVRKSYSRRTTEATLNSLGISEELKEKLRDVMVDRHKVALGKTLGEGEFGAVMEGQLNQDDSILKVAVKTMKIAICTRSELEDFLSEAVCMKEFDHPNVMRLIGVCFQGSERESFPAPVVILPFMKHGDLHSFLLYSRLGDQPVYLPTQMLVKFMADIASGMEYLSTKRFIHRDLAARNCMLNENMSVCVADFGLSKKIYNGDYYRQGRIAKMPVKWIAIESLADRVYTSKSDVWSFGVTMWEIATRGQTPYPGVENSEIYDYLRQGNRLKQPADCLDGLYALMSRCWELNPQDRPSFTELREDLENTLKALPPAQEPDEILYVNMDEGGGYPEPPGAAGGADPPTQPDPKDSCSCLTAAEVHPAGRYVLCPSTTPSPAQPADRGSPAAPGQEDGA

[4] = target: T2, FLAG-tubby-F (full-length mouse tubby …); assay: GST pull-down: GST-tubby with lysate of cells expressing the FLAG-tagged protein, glutathione resin, Western blot with anti-FLAG mAb
[5] = target: T4, FLAG-tagged Tulp2 (full-length mouse Tulp2 with N-terminal FLAG tag) (mouse, UniProt P46686 1-562); assay: as above
T4 construct: mature; Expressed from pcDNA3 in Neuro-2a cells; used as cell lysate or on membrane vesicles
T4 sequence: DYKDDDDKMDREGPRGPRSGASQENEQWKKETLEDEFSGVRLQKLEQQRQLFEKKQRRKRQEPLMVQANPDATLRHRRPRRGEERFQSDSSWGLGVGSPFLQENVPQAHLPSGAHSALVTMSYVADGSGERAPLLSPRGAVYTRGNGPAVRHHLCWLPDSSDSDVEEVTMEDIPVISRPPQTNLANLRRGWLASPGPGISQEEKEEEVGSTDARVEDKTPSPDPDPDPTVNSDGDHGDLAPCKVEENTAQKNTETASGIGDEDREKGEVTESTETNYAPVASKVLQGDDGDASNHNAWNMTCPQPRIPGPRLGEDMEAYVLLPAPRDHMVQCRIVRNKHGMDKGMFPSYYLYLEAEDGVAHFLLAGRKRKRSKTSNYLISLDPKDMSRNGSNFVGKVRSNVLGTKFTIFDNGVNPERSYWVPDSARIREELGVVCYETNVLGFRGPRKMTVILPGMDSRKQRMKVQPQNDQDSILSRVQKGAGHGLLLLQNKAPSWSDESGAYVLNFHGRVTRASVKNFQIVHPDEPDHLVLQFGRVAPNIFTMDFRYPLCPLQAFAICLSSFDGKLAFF

B1: High mobility group box 2 (Hmgb2) 89K-188E, phage clone (other, mouse, UniProt P30681 89-188, looked up)
chain: KKDPNAPKRPPSAFFLFCSENRPKIKIEHPGLSIGDTAKKLGEMWSEQSAKDKQPYEQKAAKLKEKYEKDIAAYRAKGKSEAGKKGPGRPTGSKKKNEPE
notes: range 89-188; Minimal overlap of 5 independent clones; For Y2H recloned into pGAD424
Binding to tubby-N (binding specificity of clonal phage vs. control phage) [1]: ~312 X (fold)
Binding to tubby-F (binding specificity to FLAG-tubby-F vs. to GFP-FLAG) [2]: ~21.7 X (fold)

B2: Microtubule-associated protein 7 (Mtap7) 23A-114R, phage clone (other, mouse, UniProt O88735 23-114, looked up)
chain: ASDGYKVQEKRTAPSRPTSTVSGQTSNHSGNKPDPPPVLRVDDRQRLARERREEREKQLAARETVWLEREERARQHYERHLEARKKKLEDQR
notes: range 23-114; For Y2H recloned into pGAD424
Binding to tubby-N (binding specificity of clonal phage vs. control phage) [1]: ~3.5 X (fold)
Binding to tubby-F (binding specificity to FLAG-tubby-F vs. to GFP-FLAG) [2]: ~3.8 X (fold)

B3: CCCTC-binding factor (Ctcf) 136G-400T, phage clone (other, mouse, UniProt Q61164 136-400, looked up)
chain: GAYENEVSKEGLAESEPMICHTLPLPEGFQVVKVGANGEVETLEQGELPPQEDSSWQKDPDYQPPAKKTKKTKKSKLRYTEEGKDVDVSVYDFEEEQQEGLLSEVNAEKVVGNMKPPKPTKIKKKGVKKTFQCELCSYTCPRRSNLDRHMKSHTDERPHKCHLCGRAFRTVTLLRNHLNTHTGTRPHKCPDCDMAFVTSGELVRHRRYKHTHEKPFKCSMCDYASVEVSKLKRHIRSHTGERPFQCSLCSYASRDTYKLKRHMRT
notes: range 136-400; For Y2H recloned into pGAD424
Binding to tubby-N (binding specificity of clonal phage vs. control phage) [1]: ~117 X (fold)
Binding to tubby-F (binding specificity to FLAG-tubby-F vs. to GFP-FLAG) [2]: ~44.9 X (fold)

B4: PH194: Growth arrest specific 6 (Gas6) 43Q-148R, phage clone (ligand, mouse, UniProt Q61592 43-148, looked up)
chain: QRRAYQVFEEAKQGHLERECVEEVCSKEEAREVFENDPETEYFYPRYQECMRKYGRPEEKNPDFAKCVQNLPDQCTPNPCDKKGTHICQDLMGNFFCVCTDGWGGR
notes: range 43-148
Binding activity (pfu ratio of clonal phage binding to immobilized Axl-Fc versus blank) [3]: ~40 X (fold)

B5: PH181: SPRY domain containing 3 (Spryd3) 31I-215S, phage clone (other, mouse)
chain: IREIREVRAFRYQERFKHILVDGDTLSYHGNSGEVGCYVASRPLTKDSNYFEVSIVDSGVRGTIAVGLVPQYYSLDHQPGWLPDSVAYHADDGKLYNGRAKGRQFGSKCNSGDRIGCGIEPVSFDVQTAQIFFTKNGKRVGSTIMPMSPDGLFPAVGMHSLGEEVRLHLNAELGREDDSVMMVDS
notes: range 31-215; Frequency 8
Binding activity (pfu ratio of clonal phage binding to immobilized Axl-Fc versus blank) [3]: ~1e+06 X (fold)

B6: GST-tubby-F (GST fused to full-length mouse tubby) (other, UniProt P50586 1-505, looked up)
chain: MTSKPHSDWIPYSVLDDEGSNLRQQKLDRQRALLEQKQKKKRQEPLMVQANADGRPRSRRARQSEEQAPLVESYLSSSGSTSYQVQEADSIASVQLGATRPPAPASAKKSKGAAASGGQGGAPRKEKKGKHKGTSGPATLAEDKSEAQGPVQILTVGQSDHDKDAGETAAGGGAQPSGQDLRATMQRKGISSSMSFDEDEDEDENSSSSSQLNSNTRPSSATSRKSIREAASAPSPAAPEPPVDIEVQDLEEFALRPAPQGITIKCRITRDKKGMDRGMYPTYFLHLDREDGKKVFLLAGRKRKKSKTSNYLISVDPTDLSRGGDSYIGKLRSNLMGTKFTVYDNGVNPQKASSSTLESGTLRQELAAVCYETNVLGFKGPRKMSVIVPGMNMVHERVCIRPRNEHETLLARWQNKNTESIIELQNKTPVWNDDTQSYVLNFHGRVTQASVKNFQIIHGNDPDYIVMQFGRVAEDVFTMDYNYPLCALQAFAIALSSFDSKLACE
notes: mature; Expressed in E. coli BL21(DE3) from pGEX-2T; not shown: glutathione S-transferase of pGEX-2T (Schistosoma japonicum)
binding result [4]: no binding
binding result [5]: no binding

B7: Zinc finger protein 609 (Zfp609) 1M-183E, phage clone (other, mouse, UniProt Q8BZ47 1-183, looked up)
chain: MSLSSGACGGKGVDANPVETYDSGDEWDIGVGNLIIDLDADLEKDQQKLEMSGSKEVGIPAPNAVATLPDNIKFVTPVPGPQGKEGKSKSKRSKSGKDASKPTPGTSLFSPSEGAASKKEVQGRAGDGASAGGLVAAVAPKGSEKAAKASRSVAGSKKEKENSSSKGKKERSEGVGTCSEKDP
notes: range 1-183; Minimal overlap of 2 independent clones; For Y2H recloned into pGAD424
Binding to tubby-N (binding specificity of clonal phage vs. control phage) [1]: ~53.2 X (fold)
Binding to tubby-F (binding specificity to FLAG-tubby-F vs. to GFP-FLAG) [2]: ~2.3 X (fold)

B8: Tubby like protein 1 (Tulp1) 125D-243E, phage clone (other, mouse, UniProt Q9Z273 125-243, looked up)
chain: DDDEEEEEKKEGKKEKSSLPPKKAPKEREKKAKALGPRGDVGSPDAPRKPLRTKKKEVGEGTKLRKAKKKGPGETDKDPAGSPAALRKEFPAAMFLVGEGGAAEKGVKKKGPPKGSEEE
notes: range 125-243; For Y2H recloned into pGAD424
Binding to tubby-N (binding specificity of clonal phage vs. control phage) [1]: ~49 X (fold)
Binding to tubby-F (binding specificity to FLAG-tubby-F vs. to GFP-FLAG) [2]: ~29.1 X (fold)

B9: Structure specific recognition protein 1 (Ssrp1) 486E-619G, phage clone (other, mouse, UniProt Q08943 486-619, looked up)
chain: EEEEDVAEEFDSNASASSSSNEGDSDREEKKREQLKRAKMAKDRKSRRKSSEAKKGKDPNAPKRPMSAYMLWLNASREKIKSDHPGISITDLSKKAGEIWKGMSKEKKEEWDRKAEDARREYEKAMKEYEGGRG
notes: range 486-619; Minimal overlap of 2 independent clones; For Y2H recloned into pGAD424
Binding to tubby-N (binding specificity of clonal phage vs. control phage) [1]: ~157 X (fold)
Binding to tubby-F (binding specificity to FLAG-tubby-F vs. to GFP-FLAG) [2]: ~4.5 X (fold)

B10: PC4 and SFRS1 interacting protein 1 (Psip1) 152K-219K, phage clone (other, mouse, UniProt Q99JF8 152-219, looked up)
chain: KAEKQVDTEEAGMVTAATASNVKASPKRGRPAATEVKIPKPRGRPKVVKQPCPSDGDMVIDEDKSKKK
notes: range 152-219; Minimal overlap of 4 independent clones; For Y2H recloned into pGAD424
Binding to tubby-N (binding specificity of clonal phage vs. control phage) [1]: ~196 X (fold)
Binding to tubby-F (binding specificity to FLAG-tubby-F vs. to GFP-FLAG) [2]: ~24 X (fold)

B11: Zinc finger E-box binding homeobox 1 (Zeb1) 903E-1021E, phage clone (other, mouse, UniProt Q64318 903-1021, looked up)
chain: EHTGKRPHECGICRKAFKHKHHLIEHMRLHSGEKPYQCDKCGKRFSHSGSYSQHMNHRYSYCKRGAEDRDAMEQEDAGPEVLPEVLATEHVGARASPSQADSDERESLTREEDEDSEKE
notes: range 903-1021; Residues are the minimal overlap of 2 independent clones; For Y2H the insert was recloned into pGAD424
Binding to tubby-N (binding specificity of clonal phage vs. control phage) [1]: ~284 X (fold)
Binding to tubby-F (binding specificity to FLAG-tubby-F vs. to GFP-FLAG) [2]: ~28.7 X (fold)

B12: IQ motif containing GTPase activating protein 2 (Iqgap2) 1232E-1368E, phage clone (other, mouse, UniProt Q3UQ44 1232-1368, looked up)
chain: EKSDLLNELLESLGEVPTVESFLGEGAVDPNDPNKENTLNQLSKTEISLSLTSKYDVKDGEAVDGRSLMIKTKKLIIDVTRNQPGSTLTEILETPATGQQELEHAKDMESRAVVDSRTPEEGKQSQAVIEDARLPLE
notes: range 1232-1368
Binding to tubby-N (binding specificity of clonal phage vs. control phage) [1]: ~53.2 X (fold)
Binding to tubby-F (binding specificity to FLAG-tubby-F vs. to GFP-FLAG) [2]: ~1.8 X (fold)

B13: ATP-binding cassette F1 (Abcf1) 57K-196G, phage clone (other, mouse, UniProt Q6P542 57-196, looked up)
chain: KLQKEKEQQQQQQQQKKKRDTRKGRRKKDVDDDSDERVLMERLKQLSVPASDEEDEVPAPIPRGRKKAKGGNVFEALIQDDSEEEEEEEENRVLKPAKPEKNRINKAVAEEPPGLRSKKGKEEKSKGKAKSKPAAADSEG
notes: Minimal overlap of 2 independent clones; For Y2H recloned into pGAD424
Binding to tubby-N (binding specificity of clonal phage vs. control phage) [1]: ~68.2 X (fold)
Binding to tubby-F (binding specificity to FLAG-tubby-F vs. to GFP-FLAG) [2]: ~27.2 X (fold)

B14: PH207: Microfibrillar-associated protein IA or IB (Mfap1) 160K-290E, phage clone (other)
chain: KNEEMEVMEVEDEGRSGEESESESEYEEYTDSEDEMEPRLKPVFIRKKDRVTVQEREAEALKQKELEQEAKRMAEERRKYTLKIVEEETKKELEENKRSLAALDALNTDDENDEEEYEAWKVRELKRIKRE
notes: Frequency 4; not shown: T7 capsid 10B fusion partner, linker/3C cleavage site and C-terminal biotinylation tag of the phage display construct
Binding activity (pfu ratio of clonal phage binding to immobilized Axl-Fc versus blank) [3]: ~36700 X (fold)
